The values that follow come from patent US20260125725A1 (ANTHEIA, published 2026).

Series [1] deals with the molecule itself. Put plainly: BS3 chemical cross-linking of purified recombinant protein, SDS-PAGE and immunoblot. How it is done:
(§1) All versions of THS1 and THS2 transcripts were codon-optimized and expressed in E. coli. Purified recombinant THS proteins were added to SalAT-coupled enzyme assays. […] Chemical cross-linking with the purified, recombinant THS proteins was performed to confirm dimerization (FIGS. 15A and 15B). Both THS1 and THS2 can form homodimers, and also display the formation of higher molecular weight oligomers at lower abundance. […] To further investigate the relative abundance of THS isoforms in the plant, protein extracts derived from whole stem, latex-free stem, and latex isolated from the T chemotype were subjected to proteomics analysis (FIG. 11C). In detected peptides with at least one amino acid substitution spectral counts for THS2 were considerably higher than for THS1, consistent with the higher abundance of THS2, compared with THS1, transcripts (FIG. 12C).
(§2) Cross-linking experiments. Bis[sulfosuccinimidyl] suberate (BS3) was used as cross-linking reagent and prepared in PBS buffer at a concentration of 10 mM, of which 2 μL was added to 20 μL of purified recombinant protein (1 μg/μL). After incubation on ice for 1 h, 5 μL of 5×SDS (10% w/v) was added to quench the reaction. Samples were then boiled for 5 min and subjected to SDS-PAGE and immunoblot analysis.
(In western blotting, separated proteins are transferred to a membrane and probed.)

Series [2] concerns the molecule itself. Put plainly: cross-linking, SDS-PAGE and immunoblot (FIG. 15A). On the procedure: as §1, §2
Series [3] concerns the molecule itself. Put plainly: size exclusion chromatography of purified recombinant THS2 (FIG. 15B).

B1: THS1 (thebaine synthesis polypeptide isoform, SEQ ID NO. 80) (enzyme)
chain: MDSINSSIYFCAYFRELIIKLLMAPLGVSGLVGKLSTELEVDCDAEKYYNMYKHGEDVQKAVPHLCVDVKVISGDPTRSGCIKEWNVNIDGKTIRSVEETTHNDETKTLRHRVFEGDMMKDFKKFDTIMVVNPKPDGNGCVVTRSIEYEKTNENSPTPFDYLQFGHQAIEDMNKYLRDSE
notes: Purified recombinant protein from E. coli, made from a codon-optimized gene; It carries a His6-tag; 181 amino acids; also called thebaine synthase 1
On to B1, for which, in series [1], the binding result is listed as “binds”.

B2: THS1s (N-terminally truncated splice variant of THS1, SEQ ID NO. 81) (enzyme)
chain: MYKHGEDVQKAVPHLCVDVKVISGDPTRSGCIKEWNVNIDGKTIRSVEETTHNDETKTLRHRVFEGDMMKDFKKFDTIMVVNPKPDGNGCVVTRSIEYEKTNENSPTPFDYLQFGHQAIEDMNKYLRDSE
notes: Purified recombinant His6-tagged protein from E. coli; 131 amino acids
Regarding B2, the binding result in series [1] was “binds”.

B3: THS2s (N-terminally truncated splice variant of THS2, SEQ ID NO. 32) (enzyme)
chain: MYKHGEDVKKAVPHLCVDVKIISGDPTSSGCIKEWNVNIDGKTIRSVEETTHDDETKTLRHRVFEGDVMKDFKKFDTIMVVNPKPDGNGCVVTRSIEYEKTNENSPTPFDYLQFGHQAIEDMNKYLRDSESN
notes: Purified recombinant His6-tagged protein from E. coli; 133 amino acids; also called BetV1-1S; Bet v1-1S
Take B3: the binding result in series [2] is recorded as “binds”.

B4: THS2 (thebaine synthesis polypeptide isoform, SEQ ID NO. 6) (enzyme)
chain: MAPLGVSGLVGKLSTELEVDCDAEKYYNMYKHGEDVKKAVPHLCVDVKIISGDPTSSGCIKEWNVNIDGKTIRSVEETTHDDETKTLRHRVFEGDVMKDFKKFDTIMVVNPKPDGNGCVVTRSIEYEKTNENSPTPFDYLQFGHQAIEDMNKYLRDSESN
notes: Purified recombinant protein from E. coli, made from a codon-optimized gene; 163 amino acids; also called Betv1; Betv1M
With B4, in series [3], the binding result was “binds”.
